For test [1], the target named is KIR receptors on NK cells (all inhibitory KIR2DL receptors). Kind of test: cell-based or functional assay.
Test [2] deals with recombinant KIR 2DL3 protein (entire extracellular domain, produced in E. coli, refolded) (human) (UniProt P43628). The test can be described thus: SPR (Biacore), KIR 2DL3 immobilized on CM5 chip, soluble antibody as analyte.
The target in test [3] is recombinant KIR 2DL1 protein (entire extracellular domain, produced in E. coli, refolded) (human) (UniProt P43626). The test can be described thus: SPR (Biacore), KIR 2DL1 immobilized on CM5 chip, soluble antibody as analyte. For orientation: SPR reads the build-up and loss of mass on a sensor chip optically.

In test [1], “human anti-KIR monoclonal antibody 1-7F9” showed an increased expression of CD107a on NK cells of 0.5 to 13.6%.

Regarding “monoclonal antibody DF200 produced by hybridoma DF200”, the dissociation constant Kd amounted to 2 nM in test [2] and 10.9 nM in test [3].

Usually Kd stands for a measure of binding affinity in units of concentration.

The values are drawn from patent US20140023646A1.
